B1: NLV3 TCR beta chain (CDR3β only) (parent)
chain: ASSPTGGSPSPLH
partner: MLVPMVATV
B2: NLV2 TCR alpha chain (CDR3α only) (parent)
chain: AGPMKTSYDKVI

Variants of B1 are the subject of the first test. Nature of the test: T-Switch: Jurkat TCRβ−/− cells expressing a CDR3 saturation-mutagenesis library, stained with two peptide-HLA-A*02:01 tetramers (original and novel peptide) plus anti-CD3, FACS-sorted into four gates, gDNA sequenced. Particulars: with HLA-A*02:01 with peptide … (NLV 3-1, the original bait), tetramers 1 µg/mL, 30 min on ice, DP and SW gates expanded about 10 days between rounds ('two to three rounds of selection' in the Methods), gate SP: higher = more of the variant in the gate that binds the original peptide and not the novel one = retained original binding. Fold enrichment of the CDR3 variant in one FACS gate of a two-tetra, unresolved parent, parent is a CDR3 fragment, scale: fold enrichment, numbering: sequential-on-construct, sequence ….
Turning to […] (CDR3 as printed); S8I derived by comparing it with the table's wild-type CDR3 ASSPTGGSPSPLH, the enrichment stood at 0. As for […] (CDR3 as printed); P9Q derived by comparing it with the table's wild-type CDR3 ASSPTGGSPSPLH, the enrichment amounted to 0. For the variant […] (CDR3 as printed); P9R derived by comparing it with the table's wild-type CDR3 ASSPTGGSPSPLH, the enrichment amounted to 0. On to […] (CDR3 as printed); T5N derived by comparing it with the table's wild-type CDR3 ASSPTGGSPSPLH, for which the enrichment amounted to 0. Turning to […] (CDR3 as printed); P9E derived by comparing it with the table's wild-type CDR3 ASSPTGGSPSPLH, the enrichment is 0. For the variant […] (CDR3 as printed); L12R derived by comparing it with the table's wild-type CDR3 ASSPTGGSPSPLH, the enrichment amounted to 0. As to […] (CDR3 as printed); S2G derived by comparing it with the table's wild-type CDR3 ASSPTGGSPSPLH, the enrichment was found to be 1.01. The same measure, in the same setting: in the case of […] (CDR3 as printed); P11V derived by comparing it with the table's wild-type CDR3 ASSPTGGSPSPLH it was 0; in that of […] (CDR3 as printed); P4C derived by comparing it with the table's wild-type CDR3 ASSPTGGSPSPLH, 0.

In another test the parent is B2. Described as above. To be noted: with both tetramers (double-negative gate, binds neither): HLA-A*02:01 with … and with …, tetramers 1 µg/mL, 30 min on ice, SP, DP and SW gates expanded about 10 days between rounds ('two to three rounds of selection' in the Methods), gate DN: OPPOSITE: higher = more of the variant in the gate that binds neither peptide = LESS binding (or no expression; inferred). Fold enrichment of the CDR3 variant in one FACS gate of a two-tetram, unresolved parent, parent is a CDR3 fragment, scale: fold enrichment, numbering: sequential-on-construct, sequence starts at 1.
On to […] (CDR3 as printed); I12E derived by comparing it with the table's wild-type CDR3 AGPMKTSYDKVI, for which the enrichment turned out to be 1.18. Same read-out and setting: for […] (CDR3 as printed); G2P derived by comparing it with the table's wild-type CDR3 AGPMKTSYDKVI the value was 0.883. Still for that read-out and setting: in the case of […] (CDR3 as printed); I12Q derived by comparing it with the table's wild-type CDR3 AGPMKTSYDKVI it was 1.17; in that of […] (CDR3 as printed); K5D derived by comparing it with the table's wild-type CDR3 AGPMKTSYDKVI, 0.812; in that of […] (CDR3 as printed); A1H derived by comparing it with the table's wild-type CDR3 AGPMKTSYDKVI, 0.735. On the same count and under the same terms, in the case of […] (CDR3 as printed); K10F derived by comparing it with the table's wild-type CDR3 AGPMKTSYDKVI it was 1.13; in that of […] (CDR3 as printed); I12F derived by comparing it with the table's wild-type CDR3 AGPMKTSYDKVI, 1.16; in that of […] (CDR3 as printed); K10H derived by comparing it with the table's wild-type CDR3 AGPMKTSYDKVI, 0.835. Turning to […] (CDR3 as printed); M4G derived by comparing it with the table's wild-type CDR3 AGPMKTSYDKVI, the enrichment was 0.783. Still for that read-out and setting: in the case of […] (CDR3 as printed); D9Y derived by comparing it with the table's wild-type CDR3 AGPMKTSYDKVI it was 1.09. The same measure, in the same setting: for […] (CDR3 as printed); K10P derived by comparing it with the table's wild-type CDR3 AGPMKTSYDKVI the value was 0.876.

Regarding […] (CDR3 as printed); A1Y derived by comparing it with the table's wild-type CDR3 AGPMKTSYDKVI, the enrichment was found to be 0.935.

As to […] (CDR3 as printed); K10M derived by comparing it with the table's wild-type CDR3 AGPMKTSYDKVI, the enrichment was 1.08. In the case of […] (CDR3 as printed); G2S derived by comparing it with the table's wild-type CDR3 AGPMKTSYDKVI, the enrichment was determined as 1.02. Consider […] (CDR3 as printed); I12P derived by comparing it with the table's wild-type CDR3 AGPMKTSYDKVI, for which the enrichment came out at 1.18.

[…] (CDR3 as printed); I12Y derived by comparing it with the table's wild-type CDR3 AGPMKTSYDKVI: the enrichment was found to be 1.06. On the same count and under the same terms, for […] (CDR3 as printed); K5I derived by comparing it with the table's wild-type CDR3 AGPMKTSYDKVI the value was 1.56; for […] (CDR3 as printed); D9P derived by comparing it with the table's wild-type CDR3 AGPMKTSYDKVI, 1.22.

As for […] (CDR3 as printed); I12R derived by comparing it with the table's wild-type CDR3 AGPMKTSYDKVI, the enrichment stood at 1.1. The same measure, in the same setting: for […] (CDR3 as printed); K5V derived by comparing it with the table's wild-type CDR3 AGPMKTSYDKVI the value was 0.87; for […] (CDR3 as printed); G2H derived by comparing it with the table's wild-type CDR3 AGPMKTSYDKVI, 0.822.

The test is the same for the next values; noted with them: with both tetramers (double-positive gate): HLA-A*02:01 with … and with …, tetramers 1 µg/mL, 30 min on ice, SP, DP and SW gates expanded about 10 days between rounds ('two to three rounds of selection' in the Methods), gate DP: higher = more of the variant in the gate that binds both peptides. Fold enrichment of the CDR3 variant in one FACS gate of a two-tetramer stain. SP/DP/SW gates were expanded and re-sorted bef, unresolved parent, parent is a CDR3 fragment, scale: fold enrichment, numbering: sequential-on-construct, sequence starts at 1.
[…] (CDR3 as printed); I12E derived by comparing it with the table's wild-type CDR3 AGPMKTSYDKVI: the enrichment was 0. On the same count and under the same terms, in the case of […] (CDR3 as printed); G2P derived by comparing it with the table's wild-type CDR3 AGPMKTSYDKVI it was 0.

With […] (CDR3 as printed); I12Q derived by comparing it with the table's wild-type CDR3 AGPMKTSYDKVI, the enrichment came out at 0.

Consider […] (CDR3 as printed); K5D derived by comparing it with the table's wild-type CDR3 AGPMKTSYDKVI, for which the enrichment stood at 0. As for […] (CDR3 as printed); A1H derived by comparing it with the table's wild-type CDR3 AGPMKTSYDKVI, the enrichment was found to be 0. Same read-out and setting: for […] (CDR3 as printed); K10F derived by comparing it with the table's wild-type CDR3 AGPMKTSYDKVI the value was 0; for […] (CDR3 as printed); I12F derived by comparing it with the table's wild-type CDR3 AGPMKTSYDKVI, 0; for […] (CDR3 as printed); K10H derived by comparing it with the table's wild-type CDR3 AGPMKTSYDKVI, 0.

In the case of […] (CDR3 as printed); M4G derived by comparing it with the table's wild-type CDR3 AGPMKTSYDKVI, the enrichment is 0. Consider […] (CDR3 as printed); D9Y derived by comparing it with the table's wild-type CDR3 AGPMKTSYDKVI, for which the enrichment is 0. For the variant […] (CDR3 as printed); K10P derived by comparing it with the table's wild-type CDR3 AGPMKTSYDKVI, the enrichment is 0. Take […] (CDR3 as printed); A1Y derived by comparing it with the table's wild-type CDR3 AGPMKTSYDKVI: the enrichment amounted to 0. Still for that read-out and setting: for […] (CDR3 as printed); K10M derived by comparing it with the table's wild-type CDR3 AGPMKTSYDKVI the value was 0; for […] (CDR3 as printed); G2S derived by comparing it with the table's wild-type CDR3 AGPMKTSYDKVI, 0.

In the case of […] (CDR3 as printed); I12P derived by comparing it with the table's wild-type CDR3 AGPMKTSYDKVI, the enrichment was 0. The same measure, in the same setting: for […] (CDR3 as printed); I12Y derived by comparing it with the table's wild-type CDR3 AGPMKTSYDKVI the value was 0; for […] (CDR3 as printed); K5I derived by comparing it with the table's wild-type CDR3 AGPMKTSYDKVI, 0. Still for that read-out and setting: for […] (CDR3 as printed); D9P derived by comparing it with the table's wild-type CDR3 AGPMKTSYDKVI the value was 0; for […] (CDR3 as printed); I12R derived by comparing it with the table's wild-type CDR3 AGPMKTSYDKVI, 0.

Take […] (CDR3 as printed); K5V derived by comparing it with the table's wild-type CDR3 AGPMKTSYDKVI: the enrichment was found to be 0. For […] (CDR3 as printed); G2H derived by comparing it with the table's wild-type CDR3 AGPMKTSYDKVI, the enrichment was 0.

The values above are taken from article PMC13397619.
